Read-outs that look alike come from different tables or passages of the source.

Assay [1] concerns the target PD-L1 on CHO-K1-0S8-PD-L1-8D6 cells. The assay is described as follows: cell-based or functional assay.
In assay [2] the target is Human PD-L1 (SPR analyte, Example 7) (human, UniProt Q9NZQ7 19-238, limits assumed). The assay is described as follows: SPR (Biacore 8K), antibody captured by anti-human chip, antigen analyte, 1:1 model. On the procedure:
(§1) The Anti-Human Capture-CMS chip (GE, #BR-1005-30) was prepared according to the method for conjugating the Human Antibody Capture Kit (GE, #BR-1008-39) to the Amino Conjugation Kit (GE, BR-1000-50).

Assay [3] has as its target T1, Human TIGIT (SPR analyte, Example 7) (human, UniProt Q495A1 22-141, limits assumed).
T1 sequence (looked up): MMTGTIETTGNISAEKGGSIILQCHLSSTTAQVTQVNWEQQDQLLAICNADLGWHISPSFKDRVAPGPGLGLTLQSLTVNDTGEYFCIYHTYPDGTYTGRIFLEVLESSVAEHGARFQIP
The assay is described as above. On the procedure: as §1

Assay [4] addresses T2, human TIGIT (hybridoma screening, Table 1) (human, UniProt Q495A1 22-141, limits assumed).
T2 sequence (looked up): T1 sequence (looked up)
Description: Biacore (SPR), hybridoma screening. On the technique in general: In SPR one partner is held on a chip, and binding of the other changes the refractive index at the surface.

Assay [5] deals with T3, human TIGIT on CHOK1-huTIGIT-2A3 cells (human, UniProt Q495A1 22-244).
T3 construct: whole, on cells; also called cells expressing the human TIGIT
T3 sequence (looked up): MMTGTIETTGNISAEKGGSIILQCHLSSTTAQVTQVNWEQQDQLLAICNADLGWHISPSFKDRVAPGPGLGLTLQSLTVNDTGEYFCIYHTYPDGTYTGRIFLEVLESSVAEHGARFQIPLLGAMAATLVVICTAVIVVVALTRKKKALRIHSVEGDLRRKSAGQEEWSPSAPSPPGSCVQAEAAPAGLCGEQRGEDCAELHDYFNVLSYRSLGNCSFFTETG
The assay is described as follows: flow cytometry competition with huCD155-moFc on CHOK1-huTIGIT-2A3 cells. Here is the method: After reaction, the 96-well U-shaped plate was resuspended with 1% BSA/PBS, centrifuged (300 g×3 min) to discard the supernatant, and washed once in such way; and Alexa488-goat anti-mouse-Fc (Jackson ImmunoResearch, #115-545-071) diluted at 1:300 was added to react for 15 min in the dark at room temperature. After reaction, the 96-well U-shaped plate was resuspended with 1% BSA/PBS, centrifuged (300 g×3 min) to discard the supernatant, washed three times in such a way, and finally resuspended with 100 μL of 1% BSA/PBS for each wall; and the fluorescence intensity of an FITC channel was detected with a flow cytometer (BD, #CantoII).

For assay [6], the target named is T3, human TIGIT on CHOK1-huTIGIT-2A3 cells. Description: flow cytometry on CHOK1-huTIGIT-2A3 cells. On the procedure:
All chimeric antibodies and humanized antibodies were diluted to 20 μg/ml with 1% BSA in PBS solution (1% BSA/PBS), were added to a 96-well U-shaped plate at 20 μL per well; and a negative control (with 1% BSA/PBS added only) was set up at the same time. The suspension of cells (CHOK1-huTIGIT-2A3, Huabo Biopharm) expressing human TIGIT during the logarithmic growth phase were centrifuged (1000 rpm×5 min) to discard the culture medium; and the cells were resuspended with 1% BSA/PBS until the density of viable cells was 1×10⁶/mL, and were added, at 20 μL (2×10⁴ cells) per well, to the 96-well U-shaped plate with the anti-TIGIT antibody to react for 30 min at room temperature. After reaction, the 96-well U-shaped plate was resuspended with 1% BSA/PBS, centrifuged (300 g×3 min) to discard the supernatant, and washed once in such a way; and PE-goat anti-human-Fc (Jackson ImmunoResearch, #109-115-098) diluted at 1:200 was added to react for 15 min in the dark at room temperature. After reaction, the 96-well U-shaped plate was resuspended with 1% BSA/PBS, centrifuged (300 g×3 min) to discard the supernatant, washed three times in such a way, and finally resuspended with 100 μL of 1% BSA/PBS for each wall; and the fluorescence intensity of a PE channel was detected with a flow cytometer (BD, #CantoII).
On the technique in general: In flow cytometry, cells or beads pass a laser one at a time.

Assay [7] has as its target TIGIT on Jurkat-TIGIT-22G8 cells. Description: cell-based or functional assay.
Assay [8] concerns the target T1, Human TIGIT (SPR analyte, Example 7). Description: SPR (Biacore 8K), antibody captured by anti-human chip, antigen analyte, 1:1 model. Here is the method:
as §1
The source holds these as a separate data set.

Assay [9] addresses T4, histidine-tagged (His-Tag) human TIGIT protein (huTIGIT, ACRO Biosystems, #TIT-H52H3) (human, UniProt Q495A1 22-141).
T4 construct: Bought reagent; not shown: His tag
T4 sequence (looked up): T1 sequence (looked up)
Description: SPR (Biacore 8K), antibody captured on Protein A chip, huTIGIT-His analyte, 1:1 model. On the procedure: This test determined the antigen-antibody binding kinetics and affinity by using an SPR method. BIOCORE (GE, #Biacore 8K) was used. […] An antibody sample was diluted using an equilibration buffer to an experimental working concentration, and sealed at 2-8° C. for later use. The antigen, namely, the histidine-tagged (His-Tag) human TIGIT protein (huTIGIT, ACRO Biosystems, #TIT-H52H3), was diluted with an equilibration buffer HBS-EP (10×) (GE, #BR-1006-69). Starting at 20 nM, the antigen was diluted by 2.5-fold for 5 concentration gradients, and 2 replications were set up for zero concentration (i.e., the equilibration buffer) and the lowest concentration. The chip was regenerated with pH1.5 glycine solution (GE, #BR100354).

Chain of Human PD-L1 (SPR analyte, Example 7) (Q9NZQ7 19-238 limits assumed): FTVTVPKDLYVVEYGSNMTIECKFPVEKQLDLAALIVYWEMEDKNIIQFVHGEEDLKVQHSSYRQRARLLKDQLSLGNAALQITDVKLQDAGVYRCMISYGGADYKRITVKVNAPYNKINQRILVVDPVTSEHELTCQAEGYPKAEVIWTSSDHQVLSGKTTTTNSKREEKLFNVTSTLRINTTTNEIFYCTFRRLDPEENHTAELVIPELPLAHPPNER
Chain of PD-L1 on CHO-K1-0S8-PD-L1-8D6 cells (Q9NZQ7 whole entry): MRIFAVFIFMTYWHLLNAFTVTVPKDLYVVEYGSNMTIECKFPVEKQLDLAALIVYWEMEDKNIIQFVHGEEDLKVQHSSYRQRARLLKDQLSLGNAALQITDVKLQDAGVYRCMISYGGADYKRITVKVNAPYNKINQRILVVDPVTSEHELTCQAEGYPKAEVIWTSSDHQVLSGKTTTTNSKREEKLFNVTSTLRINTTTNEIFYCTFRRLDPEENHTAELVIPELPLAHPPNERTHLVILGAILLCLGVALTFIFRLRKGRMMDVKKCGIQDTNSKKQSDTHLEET

B1: 900691 (bispecific antibody, human IgG1, kappa)
heavy: not shown
light: DVVMTQTPLSLSVTPGQPASISCKSSQSLANSYGNTYLSWYLHKPGQSPQLLIYGISNRFSGVPDRFSGSGSGTDFTLKISRVEAEDVGVYYCLQGTHQPPTFGQGTKLEIKRTVAAPSVFIFPPSDEQLKSGTASVVCLLNNFYPREAKVQWKVDNALQSGNSQESVTEQDSKDSTYSLSSTLTLSKADYEKHKVYACEVTHQGLSSPVTKSFNRGEC
notes: also called PD-L1-IgG-TIGIT-scFv
Broadly, the Kd is the free concentration of one partner at which half of the binding sites on the other are occupied at equilibrium, for simple one-to-one binding. Lower therefore signals tighter binding. What is called koff is the rate constant with which the complex falls apart. Lower therefore signals a long-lived complex. One may read the kon as a measure of how fast the partners come together. A lower kon goes with slower complex formation. In the case of B1, the “EC50 (nM), luciferase reporter, Jurkat-NFAT-PD-1-5B8 cells with CHO-K1-0S8-PD-L1-8D6 cells” value (“EC50 (nM), luciferase reporter” for short) in assay [1] is 1.84 nM. Besides, in [2], binding was put at a Kd of 2.24 nM, the koff amounted to 0.000481 s⁻¹ and the kon was determined as 214000 M⁻¹ s⁻¹. In [3], the Kd was found to be 0.0925 nM, the koff is 9.13e-05 s⁻¹ and the kon is 987000 M⁻¹ s⁻¹.

B2: 900693 (bispecific antibody, human IgG1, kappa)
heavy: not shown
light: B1 light
notes: as for B1
On to B2, for which, in assay [1], the “EC50 (nM), luciferase reporter” value turned out to be 1.98 nM. Besides, in [2], the Kd was 2.27 nM, the koff was 0.000498 s⁻¹ and the kon is 219000 M⁻¹ s⁻¹. In assay [3], this molecule displayed a Kd of 0.0863 nM, a koff of 8.03e-05 s⁻¹ and a kon of 930000 M⁻¹ s⁻¹.

B3: 900692 (bispecific antibody, human IgG1, kappa)
heavy: not shown
light: B1 light
notes: as for B1
As for B3, the “EC50 (nM), luciferase reporter” value in assay [1] stood at 2.09 nM. Moreover, in assay [2], the Kd amounted to 2.79 nM, the koff was determined as 0.00057 s⁻¹ and the association rate constant (kon) came out at 204000 M⁻¹ s⁻¹. Besides, in [3], the affinity, expressed as Kd, was 0.0751 nM; the koff was found to be 9.11e-05 s⁻¹; the kon was 1.21e+06 M⁻¹ s⁻¹.

B4: B3/29F6 (antibody, V domains shown)
VH: DVQLQESGPGLVKPSQSLSLTCTVTGYSITSDYAWIWIRQFPGNKVEWMGYITSSGSTSYNPSLKSRISFTRDTSKNQFFLQLTSVTTEDTATYYCARLDFGNYGGAMDYWGQGTSVTVSS
VL: DIVMTQSHKFMSTSIGDRVSITCKASQHVSTAVAWYQQKPGQSPKLLIYSASYRYTGVPDRFTGSRSGTDFTFTISSVQAEDLAVYYCQQHYITPYTFGGGTKLEIK
notes: Mouse hybridoma antibody
Molecule B4 showed a Kd in assay [4] of 0.0139 nM.

B5: HB0030 (antibody, human IgG1, kappa, V domains shown)
VH: QVQLQESGPGLVKPSETLSLTCTVSGYSITSDYAWIWIRQPPGKGLEWIGYITSSGSTYYNPSLKSRVTFSVDTSKNQFSLKLSSVTAADTATYYCARLDFGNYGGAMDYWGQGTLVTVSS
VL: DIQMTQSPSSLSASVGDRVTITCRASQHVSTAVNWYQQKPGKAPKLLIYSASYLYSGVPSRFSGSRSGTDFTLTISSLQPEDFATYYCQQHYITPYTFGQGTKLEIKR
notes: Humanized anti-TIGIT IgG1; also called 900461; TIGIT parental monoclonal antibody
As usually defined, the IC50 is the midpoint of a concentration-inhibition curve. For orientation: EC50 means the concentration giving half of the maximal effect. A low value points to higher potency in that assay. In assay [5], B5 had an IC50 of 0.0573 µg/mL. The same molecule returned an EC50 in assay [6] of 0.0466 µg/mL. The “EC50 (nM), IL2 secretion of Jurkat-TIGIT-22G8 cells with PHA and CD155” value in assay [7] was 5.82 nM. The Kd in [3] came out at 0.0345 nM; in assay [8], 0.0346 nM; in assay [9] it was 0.0583 nM. Moreover, the off-rate (koff) came to 0.000167 s⁻¹ in [3], 0.000175 s⁻¹ in assay [8] and 0.000185 s⁻¹ in assay [9]. In addition, the kon in [3] worked out at 4.82e+06 M⁻¹ s⁻¹; in [8] it was 5.07e+06 M⁻¹ s⁻¹; in assay [9], 3.17e+06 M⁻¹ s⁻¹.

The values are drawn from US20240010730A1 (SHANGHAI HUAOTA BIOPHARMACEUTICAL, published 2024).
